Measurements published in publication PMC4327562, “Emergence of terpene cyclization in Artemisia annua” (Nature Communications, 2015).

Test system: CC(C)=CCC/C(C)=C/CC/C(C)=C/CO[P@@](=O)(O)OP(=O)(O)O
Assay: purified protein
Conditions: 5 mM MgCl2, pH 7.0, 30 °C, inorganic pyrophosphatase coupled

(E)-β-farnesene synthase (BFS), A. annua BFS (Artemisia annua), sequence (chain, as listed by the source): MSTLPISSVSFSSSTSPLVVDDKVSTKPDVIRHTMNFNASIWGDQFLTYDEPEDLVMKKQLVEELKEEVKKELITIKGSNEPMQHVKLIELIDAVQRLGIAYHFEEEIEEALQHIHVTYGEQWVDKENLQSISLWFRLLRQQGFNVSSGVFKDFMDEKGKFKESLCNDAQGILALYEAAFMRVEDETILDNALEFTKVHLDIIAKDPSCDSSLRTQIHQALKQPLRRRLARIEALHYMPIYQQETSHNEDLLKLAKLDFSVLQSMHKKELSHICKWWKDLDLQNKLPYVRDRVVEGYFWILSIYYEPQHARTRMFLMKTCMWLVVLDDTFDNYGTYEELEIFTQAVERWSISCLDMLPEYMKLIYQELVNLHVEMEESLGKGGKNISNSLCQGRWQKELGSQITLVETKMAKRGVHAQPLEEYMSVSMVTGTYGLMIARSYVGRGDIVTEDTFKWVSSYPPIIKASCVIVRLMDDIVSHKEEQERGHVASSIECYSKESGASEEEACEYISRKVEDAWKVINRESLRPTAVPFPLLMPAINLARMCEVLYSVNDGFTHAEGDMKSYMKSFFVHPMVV

Q: “(E)-β-farnesene synthase (BFS), A. annua BFS (Artemisia annua)” was tested. Which Km did it give?
A: 16.19 µM

Q: What about the kcat of the same substance?
A: 0.17 s⁻¹

Q: And the kcat/Km?
A: 10500 M⁻¹ s⁻¹
